Test results taken from the RNAGym collection of RNA variant scans (doi:10.1073/pnas.2313332121).

B1: TPR t1 (parent)
chain: GACCAAUCUGCCCUCAGAGCUCGAGAACAUCUUCGGAUGCAGAGGAGGCAGGCUUCGGUGGCGCGAUAGCGCCAACGUCCUCAACCUCCAAUGCAUCCCACCACAUGAUGAUGCCUGAAGAGCCUUGGUUUUUUG

Variants of: B1
Experiment: polymerase ribozyme fitness, log enrichment relative to wild type (log ratio); higher = more active; in vitro selection for triplet polymerase activity
In short: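 Genotype fitness is the logarithm of its enrichment divided by wild-type enrichment, using inverse-variance-weighted averages of replicates. That logarithm is base 2. Enrichment was measured by Illumina sequencing of input and output libraries from one triplicate in vitro selection round, with frozen incubation at −7 °C, on PCR-built, transcribed mutant libraries of each subunit of a heterodimeric triplet polymerase ribozyme, retaining genotypes with ≥10 input reads and ≥1 read per output.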

Row | Variant | polymerase ribozyme fitness (log ratio)
1 | G58C C101U G122A | -1.1
2 | G61A G120C | 1.14
3 | G61A G120U | 0.215
4 | G61A A84U G117A | -1.64
5 | G61C C102U | -3.06
6 | G61A C88U U131G | -0.555
7 | G60C G128C | -2.73
8 | G58C U67C A100U G120C | -6.28
9 | G61A G77A A91G | -2.58
10 | G60A G69A U87A | -3.78
11 | G61A G93U | -0.737
12 | G60C A66G C82A | -1.84
13 | G60A U106G | -0.897
14 | G60A U106A | -0.15
15 | G58C C98G | -5.66
16 | G61C G77U U112A | -2.37
17 | G58U C70G U106C C124U U130A | -2.53
18 | G60C G113C | -2.72
19 | G61A A103U | -4.95
20 | G61A A103G | -2.38
21 | G61A U92A C123A | -2.16
22 | G58U C62A U92A | -5.81
23 | G58A G63A C98U U112A | -4.56
24 | G60A C101A U106A A119U C123U | -4.23

Row | Variant | polymerase ribozyme fitness (log ratio)
25 | G61A U129C | 0.132
26 | G60A G93A A121U | 1.81
27 | G60A C104A G113U | -5.38
28 | G61A A74C | -1.86
29 | G60A C98A | -4.29
30 | G60A C98G | -7.02
31 | G61A C97G C124U | -2.04
32 | G60C U78A A91U | -2.07
33 | G60A C99U G110U U130A | -5.82
34 | G60A G110A U112C | -1.67
35 | U59G C88G | -2.09
36 | G60U C82U G110U | -1.72
37 | G60U U106G | -1.17
38 | U59G G61U A118U | -0.0772
39 | G61A G120A C123U | 1.5
40 | G58U C73A | -0.295
41 | U59C U112C | 1.98
42 | G61A A74U G110U A118G | -4.67
43 | G58C G71A C82G C88G | -2.39
44 | G61A G93A A105G G122A | -5.32
45 | G58U C86A G117U U130G | -3.79
46 | G61C C88A | -2.91
47 | G60A C123A | 0.222
48 | G61A G113C | -1.78

Row | Variant | polymerase ribozyme fitness (log ratio)
49 | G60A U81G U109A C124A | -7.74
50 | G61C G65A C82U | -7.8
51 | G58C C98G G120C C123U | -6.14
52 | U59C A111U A118U | -4.73
53 | G60A G128A | -2.27
54 | G60A C64A U112C | -6.76
55 | G58A G71A U81G U132C | -3.8
56 | G60A U112G G120A | -2.56
57 | G60A C82U U109G | -5.13
58 | G58C U112C C114U | -1.68
59 | G60C G61C C73G C101G A111U G113C C123U U125G U126G | -7.1
60 | G60A G135C | 0.136
61 | U59C G120A | 0.486
62 | G60U C89U U92A A118U | -2.14
63 | G60A U78C | -0.393
64 | G58C G120U | 0.305
65 | G60C C76U | -3.93
66 | G61U A91U | -1.05
67 | G61A C85G G93A C101G | -2.53
68 | G60C C97A | -4.44
69 | G60C A95G | 0.473
70 | G61C C70U | -4.17
71 | G60A C94A | -2.04
72 | G58A C82U C115A C124U | -0.385

Row | Variant | polymerase ribozyme fitness (log ratio)
73 | G58C C76G G77U | -0.291
74 | G60C G127A | -1.59
75 | G60C C98G | -6.74
76 | U59C A83C C101G C115U U116A | -5.84
77 | G57U G128A | -1.33
78 | G61C U116C | -2.77
79 | G58A G120U | -0.283
80 | G61A C88G U129A | -1.82
81 | U59A C70U U96C | -1.25
82 | G60U G135C | 0.0909
83 | G60U G135U | -0.871
84 | G60A C79U U130C | 0.829
85 | G61A U133G | -0.781
86 | G57U U106G G128C | -3.98
87 | G58C G71U A74G C85A A90C | -3.43
88 | G60C U78A | -0.111
89 | G60U C114A | -1.45
90 | G58A C72G C82A | -0.468
91 | G58A U59C C70G | -4.95
92 | G60C G63A | -5.52
93 | G60U A111G U126A | -1.33
94 | G61A U92G G113U | -4.27
95 | G61C A84U G93C G128A | -5.12
96 | U59C U81G | -3.51

Row | Variant | polymerase ribozyme fitness (log ratio)
97 | U59A C64A A118U | -6.49
98 | G58U A68G | -3.5
99 | G60A C86U | -0.149
100 | G60U C86U | -1.37
101 | G57U U87G G113A C123U | -1.98
102 | G60U G110C | -2.76
103 | G61A C73U U78A | -0.265
104 | G60C C85A | -0.933
105 | G61C G63U | -5.51
106 | G61C G63A | -4.78
107 | U59A U87A G113U A118G | -4.7
108 | U59C A83U C94A C115U | -4.3
109 | G60C G117A | -0.79
110 | G60A G93U | -1.61
111 | U59A C70G | -5.27
112 | G61A U112C | 1.57
113 | U59A G63U | -1.93
114 | G61A A74C G120U | -2.24
115 | G60U A121G | 1.76
116 | G61A U106C G122A | -0.878
117 | G57U G135U | -0.352
118 | G60A G61U G127C | -5.15
119 | G61A G113C G135A | -2.34
120 | G58C C85U C123G U132A | 1.38

Row | Variant | polymerase ribozyme fitness (log ratio)
121 | G61A C73A A118G | -1.71
122 | G60A C64A C80U C97A C115A U125A U126G | -7.2
123 | U59C G71U C88U U92A | -5.66
124 | G61U A111C | -0.083
125 | G60U C115U | -0.124
126 | U59G C86U A95U C115A C123U | -2.76
127 | G60U A121U C124A U131G | -3.49
128 | G61C C70U C114U G127U | -4.4
129 | G57U U59A C124A | 1.82
130 | G61A A91C C94G A105C U109A A119C | -7.38
131 | G58C U109G G117A | -5.76
132 | G60A A90G U96C C101G | -1.58
133 | G61A C89A A90U A91G | -1.77
134 | G61C C101A U112G | -3.98
135 | G60A A90C C123U | 0.00477
136 | U59G A74G | -0.396
137 | G61A A121U | 2.32
138 | U59C C80A U81C | -3.7
139 | G61A U78C C86A A95C | -1.85
140 | G61A G69C | -3.18
141 | G58A A90C | -1.28
142 | G57U G63C A95C U112A G117A | -4.01
143 | G61A G93A C97A G120U U133C | -6.04
144 | G58U G60A G77U | 0.541

Row | Variant | polymerase ribozyme fitness (log ratio)
145 | U59A G117U | -2.68
146 | G61A U92A | -2.76
147 | G60U C102U U116A | -4.78
148 | G60C C79G G122A | -2.36
149 | G61C C101U | -1.77
150 | G60A A91C | -1.35
151 | G60A G93C U132A | -1.25
152 | G61C U78A U116G | -1.8
153 | G60A C73A | -0.416
154 | U59G G61U | -0.648
155 | U59C U106G | -1.74
156 | G60U C70U | -2.43
157 | G61C U78G U130G | -4.62
158 | G58A C124A | 2.39
159 | U59C C70U C85A | -2.04
160 | G58A A103G | -4.88
161 | G58U G60C C88U A95U | -2.05
162 | G60C C99U G117A U133G | -6.01
163 | G61C C115U | -3.07
164 | G58A G71A C89A C123A | -3.72
165 | U59A C64U C82G | -0.95
166 | G61C U92C | -2.59
167 | G60A G69U C72U C86G A118U U129A | -5.04
